In US20090023139A1, “Method For Site-Specifically Introducing Non-Natural Amino Acid Into Protien Using Mitochondrial Protein and Method For Effectively Preparing Trna” (priority 2004, published 2009):

Columns and labels:
[1] = test system: tRNA^Tyr precursor having on the 5′ end an additional sequence; assay: Confirmation of C5 protein and M1 RNA (RNase P) cleavage activity; assay type: biochemical; conditions: 150 pmol tRNA^Tyr precursor; 7M urea denatured polyacrylamide gel, methylene blue; FIG. 7
Experimental: In order to assay enzyme activity, 150 pmol of the tRNA^Tyr precursor having on the 5′ end an additional sequence was subjected to the reaction with 30 pmol of C5 proteins and […] of M1 RNA. The reaction buffer comprises 50 mM Tris-HCl (pH 7.4), 10 mM MgCl2, and 100 mM NH4Cl. The reaction solution was separated using a 7M urea-containing denatured polyacrylamide gel, and nucleic acid components were stained with methylene blue.

[2] = test system: mt tRNA^Trp; assay: Assay of aminoacylation activity using 14C tryptophan; assay type: biochemical, yeast; conditions: 30° C., 0-16 minutes; mtWRS with mt tRNA^Trp; FIG. 11
Experimental: In order to assay enzyme activity, aminoacylation was carried out using ^14C tryptophan. The reaction solution having the composition shown below was heated at 30° C. for about 5 minutes while the enzyme was removed therefrom. Thereafter, the enzyme was added, the mixture was incubated at 30° C., the mixture was spotted on a filter wetted with 5% TCA 0, 1, 4, 9, and 16 minutes after incubation, and the filter was then soaked in 5% TCA. After spotting of the reaction solution at each time point was completed, 5% TCA was discarded, and fresh 5% TCA was added to the beaker, followed by shaking for 10 minutes. This procedure was repeated twice, 100% ethanol was added, and the mixture was lightly shaken, followed by dehydration under an electric heat. Thereafter, the resultant was soaked in a scintillator, and the samples were counted using a liquid scintillation counter.
The reaction solution for aminoacylation (50 μl) was prepared by diluting 10 μl of 5×AAM (aminoacylation mixture), 0.05 A260 units of mt tRNA^Trp, an adequate amount of enzyme (depending on the concentration), and 2 μl of ^14C tryptophan in dH2O.
The 5×AAM (aminoacylation mixture) comprised 500 mM Tris-HCl (pH 7.6), 50 mM MgCl2, 200 mM KCl, and 20 mM ATP.
A scintillator (1 liter) was prepared by diluting 4 g of Dotite DPO and 0.1 g of Dotite POPOP in toluene.

Molecule | cleavage activity [1] | capacity of tRNA for accepting 14C-tryptophan [2]
C5 protein: protein component of E. coli RNase P (rnpA gene), expressed from pETC5 (protein, UniProt P0A7Y8 1-119, looked up) Ribonuclease P protein …: MVKLAFPRELRLLTPSQFTFVFQQPQRAGTPQITILGRLNSLGHPRIGLTVAKKNVRRAHERNRIKRLTRESFRLRQHELPAMDFVVVAKKGVADLDNRALSEALEKLWRRHCRLARGS | Cleavage activity could not be confirmed | 
mtWRS: yeast (Saccharomyces cerevisiae) mitochondrial tryptophanyl tRNA synthetase, SEQ ID NO: 2, His-tagged, expressed from pYC2WRS (protein, His tag) ISTVQRADFKLNSEALHSNATVFSMIQPTGCFHLGNYLGATRVWTDLCELKQPGQELIFGVADLHAITVPKPDGEMFRKFRHEAVASILAVGVDPEKASVIYQSAIPQHSELHWLLSTLASMGLLNRMTQWKSKSNIKQSTNGDYLVNDSDVGKVRLGLFSYPVLQAADILLYKSTHVPVGDDQSQHLELTRHLAEKFNKMYKKNFFPKPVTMLAQTKKVLSLSTPEKKMSKSDPNHDSVIFLNDEPKAIQKKIRKALTDSISDRFYYDPVERPGVSNLINIVSGIQRKSIEDVVEDVSRFNNYRDFKDYVSEVIIEELKGPRTEFEKYINEPTYLHSVVESGMRKAREKAAKNLADIHKIMGF |  | acceptance of tryptophan was observed
